Our source for the binding result and Kd values is WO2014027697A1 (dated 2014).

Numbering of substitutions follows the chain as printed. *: point of attachment. Biotin = O=C1N[C@H]2[C@H](CS[C@H]2CCCCC(=O)*)N1; Ahx = NCCCCCC(=O)O A value given as a limit tells only on which side of the number the result lay.

In experiment [1] the target is T1, synthetic peptide BAA658-PR3 (Streptococcus pneumoniae strain BAA-658, SMILES …).
T1 peptide: {Biotin-Ahx}-EQPAEQPKPAPAPQP-NH2
Put plainly: ELISA, biotinylated peptide on NeutrAvidin plates, antibody at 1 μg/mL.

Experiment [2] addresses T2, synthetic peptide BAA658-PR4 (Streptococcus pneumoniae strain BAA-658, SMILES …).
T2 peptide: {Biotin-Ahx}-KPAPAPQPAPAPKPE-NH2
Described as above.

The target of experiment [3] is T3, MBP-PspA-BAA658-S3 (Streptococcus pneumoniae strain BAA-658).
T3 construct: Tested as cleared E. coli lysate coated on ELISA plates; also called MBP-BAA658(S3)
Put plainly: ELISA on plates coated with E. coli lysate holding the MBP-tagged fragment, antibody at 1 μg/mL. A general note: An ELISA detects its analyte on a solid surface through an enzyme-linked reagent.

In another experiment the target is T4, MBP-PspA-BAA658-S4 (Streptococcus pneumoniae strain BAA-658).
T4 construct: Tested as cleared E. coli lysate coated on ELISA plates; also called MBP-BAA658(S4)
The experiment is described as above.

Experiment [4] deals with T5, recombinant PspA-TIGR4 with C-terminal His-tag (Streptococcus pneumoniae strain TIGR4).
T5 construct: Made in E. coli BL21(DE3), purified on Ni Sepharose; immobilized on a CM5 chip in the SPR assay; also called pelB-PspA(TIGR4)-His
T5 chain: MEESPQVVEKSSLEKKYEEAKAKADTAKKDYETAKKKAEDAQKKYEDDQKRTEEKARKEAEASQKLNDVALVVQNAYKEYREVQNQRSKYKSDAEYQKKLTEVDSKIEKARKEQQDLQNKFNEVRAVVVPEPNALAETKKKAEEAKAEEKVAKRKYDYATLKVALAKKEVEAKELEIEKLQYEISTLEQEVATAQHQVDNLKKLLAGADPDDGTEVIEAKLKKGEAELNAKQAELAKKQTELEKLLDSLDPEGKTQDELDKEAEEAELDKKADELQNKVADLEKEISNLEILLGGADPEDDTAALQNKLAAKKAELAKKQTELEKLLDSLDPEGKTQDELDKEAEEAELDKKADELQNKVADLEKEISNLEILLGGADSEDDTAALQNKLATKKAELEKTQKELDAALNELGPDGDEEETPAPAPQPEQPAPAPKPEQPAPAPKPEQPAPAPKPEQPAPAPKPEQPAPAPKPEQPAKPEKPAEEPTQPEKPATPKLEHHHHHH
Description: SPR, Biacore 3000, PspA immobilized on CM5 chip, antibody as analyte, bivalent binding model (KD1 = kd1/ka1). On the technique in general: In SPR one partner is held on a chip, and binding of the other changes the refractive index at the surface.

The target of experiment [5] is T6, recombinant PspA-D39 with C-terminal His-tag (Streptococcus pneumoniae strain D39).
T6 construct: Made in E. coli BL21(DE3), purified on Ni Sepharose; immobilized on a CM5 chip in the SPR assay; also called pelB-PspA(D39)-His; PspA-6xHis (D39)
T6 chain: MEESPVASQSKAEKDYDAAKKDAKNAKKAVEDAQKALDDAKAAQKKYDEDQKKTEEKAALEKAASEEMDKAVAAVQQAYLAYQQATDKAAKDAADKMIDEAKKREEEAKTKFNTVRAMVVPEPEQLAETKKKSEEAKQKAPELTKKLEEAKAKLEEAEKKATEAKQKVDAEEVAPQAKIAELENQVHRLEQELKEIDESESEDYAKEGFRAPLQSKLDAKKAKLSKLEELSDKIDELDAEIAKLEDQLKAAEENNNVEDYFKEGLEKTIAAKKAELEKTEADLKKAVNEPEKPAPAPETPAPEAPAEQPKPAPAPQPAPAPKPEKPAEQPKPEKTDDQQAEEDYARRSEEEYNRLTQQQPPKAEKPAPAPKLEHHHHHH
The experiment is described as above.

Another experiment has as its target recombinant PspA-BAA658 (Streptococcus pneumoniae strain BAA-658). The description is as above.
The target in a further experiment is T7, MBP-PspA-BAA658-FL (Streptococcus pneumoniae strain BAA-658).
T7 construct: Tested as cleared E. coli lysate coated on ELISA plates; also called full BAA-658 peptide; strain BAA-658 FL
Put plainly: ELISA on plates coated with E. coli lysate holding the MBP-tagged protein, antibody at 1 μg/mL.

In experiment [6] the target is T8, synthetic peptide BAA658-PR1.2 (Streptococcus pneumoniae strain BAA-658, SMILES …).
T8 peptide: {Biotin-Ahx}-PEKPAEETPAPAPKPEQPA-NH2
Description: ELISA, biotinylated peptide on NeutrAvidin plates, antibody at 1 μg/mL.

Experiment [7] concerns the target T9, synthetic peptide BAA658-PR2 (Streptococcus pneumoniae strain BAA-658, SMILES …).
T9 peptide: {Biotin-Ahx}-TPAPAPKPEQPAEQPK-NH2
The description is as above.

A further experiment has as its target T10, MBP-PspA-BAA658-S1 (Streptococcus pneumoniae strain BAA-658).
T10 construct: Tested as cleared E. coli lysate coated on ELISA plates; also called MBP-BAA658(S1)
Put plainly: ELISA on plates coated with E. coli lysate holding the MBP-tagged fragment.

For experiment [8], the target named is T3, MBP-PspA-BAA658-S3. The description is as above.
Another experiment has as its target T11, MBP-PspA-BAA658-S2 (Streptococcus pneumoniae strain BAA-658).
T11 construct: Tested as cleared E. coli lysate coated on ELISA plates; also called MBP-BAA658(S2)
The description is as above.

Experiment [9] has as its target T1, synthetic peptide BAA658-PR3. Description: ELISA, biotinylated peptide on NeutrAvidin plates.
The target in experiment [10] is T8, synthetic peptide BAA658-PR1.2. Put plainly: ELISA, biotinylated peptide on NeutrAvidin plates.
Experiment [11] concerns the target T12, synthetic peptide BAA658-PR1 (Streptococcus pneumoniae strain BAA-658, SMILES …).
T12 peptide: {Biotin-Ahx}-PEKPAEETPAPAPKPEQ-NH2
Description: ELISA, biotinylated peptide on NeutrAvidin plates.

The target of experiment [12] is T9, synthetic peptide BAA658-PR2. Put plainly: ELISA, biotinylated peptide on NeutrAvidin plates.
The target of experiment [13] is T2, synthetic peptide BAA658-PR4. Put plainly: ELISA, biotinylated peptide on NeutrAvidin plates.

B1: anti-PspA mouse monoclonal antibody 140H1 (antibody, V domains shown)
VH: QIQLVQSGPELKKPGETVRISCKASGYTFTTAGMQWVQKVPGKGLQWIGWINTHSGVPTYAEDFKGRIAFSLETSASAAYLQISNLKDEDTATYFCGRSGTGYAMDYWGQGTSVIVSS
VL: DTVMSQSPSSLVVSVGEKVSMSCKSSQNLLYTNNQKNYLAWYQQKPGQSPKLLIYWASTRESGVPDRFTGSGSGTDFTLTITSVKAEDLAVYYCQQYYTYPYTFGGGTKLEIK
notes: Hybridoma antibody, mouse IgG1, kappa, raised against PspA-D39; also called clone 140H1
Regarding B1, the binding result (in experiment [1]; in experiment [2]; with MBP-PspA-BAA658-S3 [3]; with MBP-PspA-BAA658-S4; with MBP-PspA-BAA658-FL) was “binds” throughout. The Kd (in experiment [4]; in [5]; in the experiment with recombinant PspA-BAA658) was below 100 nM throughout.

B2: anti-PspA mouse monoclonal antibody 139G3 (antibody, V domains shown)
VH: EVQLQQSGTEVVKPGASVKLSCTASGFNIKDTYIHWVKKRPEQGLEWIGRIDPANGNTRYDPKFQGKATMTADTSSNTAYLQVSSLTSEDTAVYYCSRSDKFVWFAYWGQGTLVTVSA
VL: DIVLTQSPVSLTVYMGQRATISCRASQSVSTSSYNYIHWFQQKPGQPPKLLIKYASTLESGVPARFSGGGSGTDFTLNIHPVEEEDAATYSCQHSWEIPYTFGGGTKLEIK
notes: Hybridoma antibody, mouse IgG2a, kappa, raised against PspA-TIGR4; also called clone 139G3
For the molecule B2, the binding result (in [6]; in experiment [7]; in the experiment with MBP-PspA-BAA658-S3 [3]; in the experiment with MBP-PspA-BAA658-S4; with MBP-PspA-BAA658-FL) was “binds” each time.

B3: anti-PspA mouse monoclonal antibody 140G1 (antibody, V domains shown)
VH: QVQLKESGPGLVAPSQSLSITCTVSGFSLIGYGVNWVRQPPGKGLEWLGMIWGDGSTDYNLVLKSRLSINKDNSKSQVFLQMNSLQTDDTARYYCARGPQWGFAYWGQGTLVSVSA
VL: DIVMSQSPSSLAVSAGEKVTMSCKSSQSLLNSRTRKNYLAWYQQKPGQSPKLLIYWASTRESGVPDRFTGSGSGTDFTLTISSVQAEDLAVYYCKQSYNLPTFGGGTKLEIK
notes: Hybridoma antibody, mouse IgG1, kappa, raised against PspA-D39; also called clone 140G1
Regarding B3, the binding result with MBP-PspA-BAA658-S4 is on record as “binds”; in the experiment with MBP-PspA-BAA658-FL, “binds”; with MBP-PspA-BAA658-S1, “no binding (tested: 1 μg/mL)”; with MBP-PspA-BAA658-S3 [8] it was “no binding (tested: 1 μg/mL)”; with MBP-PspA-BAA658-S2, “no binding (tested: 1 μg/mL)”; in [9] it was “no binding (tested: 1 μg/mL)”. Also, the binding result in experiment [10], in experiment [11], in experiment [12] and in experiment [13] was “no binding (tested: 1 μg/mL)” in each case.

B4: anti-PspA mouse monoclonal antibody 140G11 (antibody, V domains shown)
VH: B3 VH with I30T, L61S, V62A, N70S, Q81K, S113T
VL: B3 VL
notes: Hybridoma antibody, mouse IgG2a, kappa, raised against PspA-D39; also called clone 140G11
Consider B4, for which the binding result (in the experiment with MBP-PspA-BAA658-S1; with MBP-PspA-BAA658-S3 [8]; with MBP-PspA-BAA658-S2; in experiment [9]; in experiment [10]; in experiment [11]) was “no binding (tested: 1 μg/mL)” each time. The binding result in experiment [12] and in experiment [13] was “no binding (tested: 1 μg/mL)” each time.
